Data on 3 molecules can be found in patent publication EP1899377B1 (GLAXO GROUP LIMITED, dated 2012).

Experiment [1] deals with T1, GST-human NOGO-A56 (human, UniProt Q9NQC3 586-785).
T1 construct: GST-tagged fusion expressed in E. coli BL21 from pGEX-6P1; also called hNOGO; human NOGO 5+6 GST; not shown: Glutathione S-transferase tag encoded by vector pGEX-6P1 (N-terminal, with vector linker)
T1 sequence: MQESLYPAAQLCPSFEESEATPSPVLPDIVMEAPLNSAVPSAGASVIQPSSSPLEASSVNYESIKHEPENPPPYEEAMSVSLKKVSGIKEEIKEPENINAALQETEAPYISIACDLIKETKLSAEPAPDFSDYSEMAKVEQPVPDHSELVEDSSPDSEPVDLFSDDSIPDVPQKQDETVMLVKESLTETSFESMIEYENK
The experiment can be described thus: SPR (Biacore), GST-human NOGO-A56 immobilised, purified antibody as analyte; single experiment (value said to be not typical). In general terms: In SPR one partner is held on a chip, and binding of the other changes the refractive index at the surface.

In experiment [2] the target is T1, GST-human NOGO-A56. Description: SPR off-rate ranking, supernatant from small-scale transient transfection over immobilised GST-human NOGO-A56; single experiment.
Experiment [3] concerns the target T1, GST-human NOGO-A56. The experiment can be described thus: SPR (Biacore), GST-human NOGO-A56 immobilised, purified antibody as analyte; single experiment.
Experiment [4] concerns the target T1, GST-human NOGO-A56. The description is as above. This is another data set of the same source.
The target of experiment [5] is T1, GST-human NOGO-A56. Description: SPR (Biacore), GST-human NOGO-A56 immobilised, purified antibody as analyte; mean (SD) of 12 runs.
For experiment [6], the target named is T1, GST-human NOGO-A56. Description: SPR (Biacore T100), reverse format: antibody captured on Protein A, human NOGO 5+6 GST as analyte, 1:1 model; mean (SD) of 5 or 6 runs.
Experiment [7] has as its target T1, GST-human NOGO-A56. Description: SPR (Biacore), GST-human NOGO-A56 immobilised, purified antibody as analyte; single experiment. This is another data set of the same source.

B1: H16L16 (antibody, human IgG1, kappa)
heavy: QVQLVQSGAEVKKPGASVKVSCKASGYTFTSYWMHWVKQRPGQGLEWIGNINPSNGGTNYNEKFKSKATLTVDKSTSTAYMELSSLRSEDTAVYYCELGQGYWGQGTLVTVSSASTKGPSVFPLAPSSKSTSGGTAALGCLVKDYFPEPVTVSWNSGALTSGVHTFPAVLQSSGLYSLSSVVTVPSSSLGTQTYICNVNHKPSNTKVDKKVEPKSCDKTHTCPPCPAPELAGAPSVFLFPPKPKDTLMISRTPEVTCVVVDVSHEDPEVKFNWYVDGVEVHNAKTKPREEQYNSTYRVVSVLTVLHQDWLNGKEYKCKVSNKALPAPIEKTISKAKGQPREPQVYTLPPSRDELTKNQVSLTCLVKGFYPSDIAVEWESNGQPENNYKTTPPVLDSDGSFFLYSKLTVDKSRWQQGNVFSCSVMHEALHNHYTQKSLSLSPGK
light: DIVMTQSPLSNPVTLGQPVSISCRSSKSLLYKDGKTYLNWFLQRPGQSPQLLIYLMSTRASGVPDRFSGGGSGTDFTLKISRVEAEDVGVYYCQQLVEYPLTFGQGTKLEIKRTVAAPSVFIFPPSDEQLKSGTASVVCLLNNFYPREAKVQWKVDNALQSGNSQESVTEQDSKDSTYSLSSTLTLSKADYEKHKVYACEVTHQGLSSPVTKSFNRGEC
In the case of B1, in the experiment with GST-human NOGO-A56 [1], the dissociation constant Kd (commonly the constant that tells how readily two partners part at equilibrium) came to 3.4 nM; the koff (as a rule, the rate constant with which the complex falls apart) worked out at 0.004 s⁻¹; the kon (usually the second-order rate constant of association) came out at 1.2e+06 M⁻¹ s⁻¹. The dissociation rate constant (koff) in the experiment with GST-human NOGO-A56 [2] came to 0.00577 s⁻¹.

B2: H20L16 (antibody, human IgG1, kappa, V domains shown)
VH: QVQLVQSGAEVKKPGASVKVSCKASGYTFTSYWMHWVRQAPGQGLEWIGNINPSNGGTNYNEKFKSKATMTRDTSTSTAYMELSSLRSEDTAVYYCELGQGYWGQGTLVTVSS
VL: DIVMTQSPLSNPVTLGQPVSISCRSSKSLLYKDGKTYLNWFLQRPGQSPQLLIYLMSTRASGVPDRFSGGGSGTDFTLKISRVEAEDVGVYYCQQLVEYPLTFGQGTKLEIKR
notes: human gamma1 mutated constant region, human kappa; also called H20L16 FL
As for B2, the dissociation constant Kd in the experiment with GST-human NOGO-A56 [3] was 1.7 nM; with GST-human NOGO-A56 [4] it was 1.61 nM; with GST-human NOGO-A56 [5] it was 1.86 nM; with GST-human NOGO-A56 [6] it was 0.31 nM. The koff with GST-human NOGO-A56 [3] was determined as 0.0073 s⁻¹; with GST-human NOGO-A56 [4] it was 0.00847 s⁻¹; with GST-human NOGO-A56 [5], 0.0102 s⁻¹; with GST-human NOGO-A56 [2] it was 0.00718 s⁻¹; with GST-human NOGO-A56 [6] it was 0.000313 s⁻¹. In addition, the kon with GST-human NOGO-A56 [3] turned out to be 4.4e+06 M⁻¹ s⁻¹; in the experiment with GST-human NOGO-A56 [4], 5.24e+06 M⁻¹ s⁻¹; with GST-human NOGO-A56 [5], 5.43e+06 M⁻¹ s⁻¹; with GST-human NOGO-A56 [6] it was 1.01e+06 M⁻¹ s⁻¹.

B3: HcLc (antibody, human IgG1, kappa, V domains shown)
VH: QVQLQQPGTELVKPGASVKLSCKASGYTFTSYWMHWVKQRPGQGLEWIGNINPSNGGTNYNEKFKSKATLTVDKSSSTAYMQLSSLTSEDSAVYYCELGQGYWGQGTLVTVSS
VL: DIVITQDELSNPVTSGESVSISCRSSKSLLYKDGKTYLNWFLQRPGQSPQLLIYLMSTRASGVSDRFSGSGSGTDFTLEISRVKAEDVGVYYCQQLVEYPLTFGAGTKLELKR
notes: also called chimera of 2A10; 2A10 chimeric antibody
In the case of B3, the dissociation constant Kd with GST-human NOGO-A56 [3] came out at 1.7 nM; in the experiment with GST-human NOGO-A56 [4] it was 1.42 nM; in the experiment with GST-human NOGO-A56 [7] it was 1.59 nM; with GST-human NOGO-A56 [5] it was 1.9 nM; in the experiment with GST-human NOGO-A56 [6], 0.41 nM. In addition, the dissociation rate constant (koff) was 0.0044 s⁻¹ in the experiment with GST-human NOGO-A56 [3]; 0.0035 s⁻¹ with GST-human NOGO-A56 [4]; 0.00369 s⁻¹ with GST-human NOGO-A56 [7]; 0.00754 s⁻¹ with GST-human NOGO-A56 [5]; 0.00392 s⁻¹ with GST-human NOGO-A56 [2]; 0.000569 s⁻¹ with GST-human NOGO-A56 [6]. For the same molecule, the kon in the experiment with GST-human NOGO-A56 [3] was determined as 2.6e+06 M⁻¹ s⁻¹; in the experiment with GST-human NOGO-A56 [4] it was 2.46e+06 M⁻¹ s⁻¹; with GST-human NOGO-A56 [7], 2.32e+06 M⁻¹ s⁻¹; with GST-human NOGO-A56 [5], 3.92e+06 M⁻¹ s⁻¹; with GST-human NOGO-A56 [6] it was 1.38e+06 M⁻¹ s⁻¹.
